The text below walks through data of paper PMC4106346, “The Oligomeric States of the Purified Sigma-1 Receptor Are Stabilized by Ligands” (The Journal of Biological Chemistry, 2014).

The data set has as its target Q60492. Put plainly: TOXCAT (ToxR-driven CAT reporter of transmembrane self-association); TM domain between MBP and ToxR in the membrane of E. coli MM39; CAT activity of lysates as percent of glycophorin A. Particulars: other: TOXCAT (ToxR-driven CAT reporter of transmembrane self-association).

Turning to WVFVNAGGWMLAMCLLHASL [TM2 domain of S1R with G91L in the TOXCAT construct], the “TOXCAT response relative to nonmutated TM2” value is “attenuated to only 60% of that observed from the nonmutated TM2”.
